Test results as given in article doi:10.1101/361857 (bioRxiv, 2018).
Like-named read-outs stand apart in the source and are kept apart here. Ends that are not written are not given here. * marks the point of attachment. diazirine‑based cleavable photocrosslinker = not defined here; Biotin = O=C1N[C@H]2[C@H](CS[C@H]2CCCCC(=O)*)N1

Assays:
Test in all cases: cross-linking
[1] = molecular target: T1, JNK1 β-1 isoform lacking 20 amino acids from the C-terminus (JNK1 ΔC20) (human, UniProt P45983-3 1-364)
[2] = molecular target: T1, JNK1 β-1 isoform lacking 20 amino acids …; remark: listed apart in the source
ERK2 = ERK2 (human, UniProt P28482 1-360)
Chain of ERK2 (P28482 whole entry): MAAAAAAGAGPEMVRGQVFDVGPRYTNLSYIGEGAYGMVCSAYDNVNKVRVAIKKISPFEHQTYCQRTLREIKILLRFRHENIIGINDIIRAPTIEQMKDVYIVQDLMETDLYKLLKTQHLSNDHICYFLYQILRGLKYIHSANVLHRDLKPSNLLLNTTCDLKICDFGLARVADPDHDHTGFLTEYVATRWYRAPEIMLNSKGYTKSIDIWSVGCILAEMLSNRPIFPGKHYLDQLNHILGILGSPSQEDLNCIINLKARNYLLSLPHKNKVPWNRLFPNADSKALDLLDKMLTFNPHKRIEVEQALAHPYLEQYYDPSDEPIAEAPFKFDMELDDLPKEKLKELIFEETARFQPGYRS

Biotin-C(diazirine‑based cleavable photocrosslinker)QGKRKALKLNFANW (reading uncertain) [MKK4 D-motif peptide wt (wild-type)]: binds [1].

Biotin-C(diazirine‑based cleavable photocrosslinker)GKRKALKLNFANW (reading uncertain) [MKK4 D-motif peptide I]: binds [2]; binds (ERK2).

Biotin-C(diazirine‑based cleavable photocrosslinker)KRKALKLNFANW (reading uncertain) [MKK4 D-motif peptide II]: binds [2]; binds (ERK2).
